Substrate in series [1]: N[C@@H](CO)C(=O)O
Kind of series: purified protein. Particulars: 250 μM C16:0-CoA, 100 mM HEPES, 250 mM NaCl, pH 7.0, 30 °C. It is filed as biochemical, Caulobacter vibrioides.

Substrate in series [2]: CCCCCCCCCCCCCCCC(=O)SCCNC(=O)CCNC(=O)[C@H](O)C(C)(C)COP(=O)(O)OP(=O)(O)OC[C@H]1O[C@@H](n2cnc3c(N)ncnc32)[C@H](O)[C@@H]1OP(=O)(O)O
The series can be described thus: purified protein. Type of series: biochemical, Caulobacter vibrioides. Conditions: 100 mM HEPES.

B1: Spt (CCNA_01220) (Caulobacter vibrioides NA1000) (protein)
chain: MGLFDKHLAYRDAYKAIQDVGANPFKVRFDAVHSPTEGVVDGRPTILLGTNNYLGLTFDEQAIAASVKAVQERGTGTTGSRIANGSFESHVELEQELAKFYGRKHAMVFTTGYQANLGVLSTLVGRGDHLILDADSHASIYDGSRLGHAEVIRFRHNDPEDLAKRLRRLGDAPGERLIVVEGIYSMIGDVAPLKEIAAVKREMGGYLLVDEAHSMGVLGATGRGLAEAAGVEEDVDFIVGTFSKSLGAIGGFCVSDHDDFDVMRVICRPYMFTASLPPAVAASTVTALRRMIEQPELRDRLNRNAKRLYDGLTAMGFLTGPSASPIVAATMPDQERAIAMWNGLLQAGVYLNLALPPATPDSRPLLRASVSAAHTDEQIDAVLKTYGEIGAALGVIEPLKRARA
In general, Km refers to the substrate concentration at which the rate is half of its maximum. As for B1, the Km in series [1] stood at 2980 ± 250 µM; in series [2] (20 mM L-serine, 250 mM NaCl, pH 7.0, 30 °C), 110.40 ± 13.37 µM.

B2: bCerS (CCNA_01212) (Caulobacter vibrioides NA1000) (protein)
chain: MPFDSTNADLSVIPVKTPAELKRFIALPARLNAKDPNWITPLFMERTDALTPKTNPFFDHAEVQLFLATRGGRDVGRISAQIDQLTPQPTEGRLDGHFGMIAAEDDPAVFNVLFRAAEDWLRARGRTHAVGPFNLSINEEVGLLVWGFDTPPMVLMGHDPVYAGPRVEEQGYAKAQDLFAYKADETGDIPEIAQRRVKRGLPSGVVLRQLDMSRYDQEVQTLTEILNDAWSDNWGFTPTTEAETRQLAKSLKQVIDQRLVWFSEIDGEAAGVVVFLPNVNEAIADLKGKLLPFGWAKLLWRLKVKGVKSARIPLMGVKKKFQTSQRGRMLPFWMMKASRDMAMSLGYNRYEISWVLEANKAMTHIAENVGGTHYKTYRVYEKAL
As for B2, the Michaelis-Menten constant (Km) in series [2] (with 3-KDS (40 μM), 150 mM NaCl, pH 7.5, 30 °C) was determined as 21.3 ± 4.1 µM.

The record behind these values is PMC8891067.
